In IntAct's records for PubMed 19513100:

Key:
rb_mouse Rb1 = rb_mouse Rb1 (UniProt P13405)
fog1_human ZFPM1 = fog1_human ZFPM1 (UniProt Q8IX07)
Sequence of fog1_human ZFPM1 (Q8IX07 whole entry): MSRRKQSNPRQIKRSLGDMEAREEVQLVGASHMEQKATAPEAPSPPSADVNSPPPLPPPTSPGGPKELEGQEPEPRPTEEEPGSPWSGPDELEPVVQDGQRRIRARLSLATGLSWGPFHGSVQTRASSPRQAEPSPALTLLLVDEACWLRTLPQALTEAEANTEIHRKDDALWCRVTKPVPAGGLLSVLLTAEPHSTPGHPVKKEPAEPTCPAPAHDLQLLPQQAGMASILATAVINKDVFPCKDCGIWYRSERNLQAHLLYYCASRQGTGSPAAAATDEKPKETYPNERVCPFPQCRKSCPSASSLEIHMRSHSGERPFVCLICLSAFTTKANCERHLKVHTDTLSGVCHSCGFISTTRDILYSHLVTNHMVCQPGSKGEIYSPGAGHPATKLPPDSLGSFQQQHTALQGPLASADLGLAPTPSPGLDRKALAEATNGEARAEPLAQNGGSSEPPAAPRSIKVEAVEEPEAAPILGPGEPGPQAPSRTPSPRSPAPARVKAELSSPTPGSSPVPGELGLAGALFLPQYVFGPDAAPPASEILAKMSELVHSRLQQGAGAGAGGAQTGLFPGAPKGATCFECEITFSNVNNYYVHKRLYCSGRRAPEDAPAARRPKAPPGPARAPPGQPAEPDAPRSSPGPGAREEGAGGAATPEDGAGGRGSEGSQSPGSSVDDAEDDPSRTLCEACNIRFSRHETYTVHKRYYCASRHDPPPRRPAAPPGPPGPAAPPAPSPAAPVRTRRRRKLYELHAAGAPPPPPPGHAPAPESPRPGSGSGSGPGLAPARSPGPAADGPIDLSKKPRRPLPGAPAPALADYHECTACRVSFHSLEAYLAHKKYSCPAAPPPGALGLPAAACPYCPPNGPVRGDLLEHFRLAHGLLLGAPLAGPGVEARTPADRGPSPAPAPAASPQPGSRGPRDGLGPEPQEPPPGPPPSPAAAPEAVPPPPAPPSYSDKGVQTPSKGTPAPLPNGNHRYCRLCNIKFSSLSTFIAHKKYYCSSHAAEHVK

Sequence of Erythroid transcription factor (Homo sapiens), P15976 V205G (P15976 whole entry V205G): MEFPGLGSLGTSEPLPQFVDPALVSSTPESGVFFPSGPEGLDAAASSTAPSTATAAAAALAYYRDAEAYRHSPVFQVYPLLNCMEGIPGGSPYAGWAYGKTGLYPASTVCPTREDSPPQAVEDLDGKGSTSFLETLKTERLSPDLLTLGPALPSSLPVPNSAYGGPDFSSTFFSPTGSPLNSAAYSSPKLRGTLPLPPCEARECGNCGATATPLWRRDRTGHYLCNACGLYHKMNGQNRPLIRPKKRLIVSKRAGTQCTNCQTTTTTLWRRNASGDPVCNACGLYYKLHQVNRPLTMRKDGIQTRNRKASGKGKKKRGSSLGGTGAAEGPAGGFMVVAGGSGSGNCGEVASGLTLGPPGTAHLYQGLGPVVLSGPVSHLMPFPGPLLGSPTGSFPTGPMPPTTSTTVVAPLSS
Sequence of rb_mouse Rb1 (P13405 whole entry): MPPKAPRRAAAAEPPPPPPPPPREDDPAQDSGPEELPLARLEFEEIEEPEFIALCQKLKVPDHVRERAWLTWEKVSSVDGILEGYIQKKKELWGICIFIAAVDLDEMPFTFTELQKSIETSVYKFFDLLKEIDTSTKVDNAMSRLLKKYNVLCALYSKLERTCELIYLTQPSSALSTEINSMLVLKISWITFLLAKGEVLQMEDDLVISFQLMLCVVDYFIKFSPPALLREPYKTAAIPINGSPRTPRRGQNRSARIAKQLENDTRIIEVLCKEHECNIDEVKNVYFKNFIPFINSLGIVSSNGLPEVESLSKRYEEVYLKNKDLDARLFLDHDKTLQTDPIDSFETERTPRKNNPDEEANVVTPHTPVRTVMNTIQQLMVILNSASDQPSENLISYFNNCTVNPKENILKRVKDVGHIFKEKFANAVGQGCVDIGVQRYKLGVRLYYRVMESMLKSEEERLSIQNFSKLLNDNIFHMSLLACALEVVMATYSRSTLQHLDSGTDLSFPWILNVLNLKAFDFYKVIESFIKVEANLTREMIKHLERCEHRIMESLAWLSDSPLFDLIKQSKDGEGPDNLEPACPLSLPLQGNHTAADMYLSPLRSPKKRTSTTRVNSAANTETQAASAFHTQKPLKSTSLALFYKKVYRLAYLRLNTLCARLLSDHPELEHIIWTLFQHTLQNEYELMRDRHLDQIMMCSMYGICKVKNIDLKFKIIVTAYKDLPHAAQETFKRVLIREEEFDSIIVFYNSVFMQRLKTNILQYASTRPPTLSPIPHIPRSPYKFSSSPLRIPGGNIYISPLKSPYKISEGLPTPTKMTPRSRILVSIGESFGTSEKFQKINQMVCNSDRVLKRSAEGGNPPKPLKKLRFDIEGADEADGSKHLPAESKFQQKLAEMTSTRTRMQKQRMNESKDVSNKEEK
Sequence of Erythroid transcription factor (Homo sapiens), P15976 C83G;E85K (P15976 whole entry C83G/E85K): as the sequence (P15976 whole entry V205G) above, with C83G, E85K, G205V counted along it

Substance | effect of a mutation on the interaction (rb_mouse Rb1) | effect of a mutation on the interaction (fog1_human ZFPM1)
Erythroid transcription factor (Homo sapiens), P15976 C83G;E85K | disrupting interaction | 
Erythroid transcription factor (Homo sapiens), P15976 V205G |  | disrupting interaction
